According to patent US20250092124A1 (YUNNAN BAIYAO GROUP, published 2025):
Residue numbers refer to the chain shown, from its start.

T1: cynoGDF15-mFC (monkey (cyno); mouse, UniProt G7PWZ3 197-308)
T1 construct: also called monkey GDF15 (cynoGDF15)
T1 sequence (looked up): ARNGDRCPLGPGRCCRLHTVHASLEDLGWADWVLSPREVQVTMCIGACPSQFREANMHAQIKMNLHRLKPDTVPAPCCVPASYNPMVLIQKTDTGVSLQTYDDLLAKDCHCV

T2: fusion protein comprising the extracellular region of human GDF15 protein and human IgG1-FC (human, UniProt Q99988 197-308, limits assumed)
T2 construct: extracellular domain
T2 sequence (looked up): T1 sequence (looked up) with R6H, H21R, E54A, M63T, N64S, V112I

T3: GDF15-mFC protein (human; mouse, UniProt Q99988 197-308)
T3 construct: extracellular domain;domain: IgG2a-FC; also called GDF15-mFc fusion protein
T3 sequence (looked up): T1 sequence (looked up) with R6H, H21R, E54A, M63T, N64S, V112I

T4: GDF15-HIS (ACROBiosystems, CAT #: GD5-H5149) (human, UniProt Q99988 197-308)
T4 construct: Bought protein; also called GDF15 (ACROBiosystems, GD5-H5149); human GDF15; not shown: His tag
T4 sequence (looked up): T1 sequence (looked up) with R6H, H21R, E54A, M63T, N64S, V112I

T5: fusion protein comprising the extracellular region of monkey GDF15 protein and human IgG1-FC (monkey (cyno); human, UniProt G7PWZ3 197-308, limits assumed)
T5 construct: extracellular domain; also called cynoGDF15
T5 sequence (looked up): T1 sequence (looked up)

B1: Ponsegromab (antibody, V domains shown)
VH: QVQLVQSGAEVKKPGSSVKVSCKASGYTFSSYNIDWVRQAPGQGLEWMGGINPIFGTAFYNQKFQGRVTITADESTSTAYMELSSLRSEDTAVYYCAREAITTVGAMDHWGQGTLVTVSS
VL: EIVLTQSPATLSLSPGERATLSCRTSQSVHNYLAWYQQKPGQAPRLLIYDASTRADGIPARFSGSGSGTDFTLTISSLEPEDFAVYYCQQFWSWPWTFGQGTKVEIKR
B2: AV380-mIgG1 (antibody)
heavy: EVLLQQSGPELVKPGASVKIPCKASGYTFTDYNMDWVKQSHGKSLEWIGQINPNNGGIFFNQKFKGKATLTVDKSSNTAFMEVRSLTSEDTAVYYCAREAITTVGAMDYWGQGTSVTVSSAKTTPPSVYPLAPGSAAQTNSMVTLGCLVKGYFPEPVTVTWNSGSLSSGVHTFPAVLQSDLYTLSSSVTVPSSTWPSETVTCNVAHPASSTKVDKKIVPRDCGCKPCICTVPEVSSVFIFPPKPKDVLTITLTPKVTCVVVDISKDDPEVQFSWFVDDVEVHTAQTQPREEQFNSTFRSVSELPIMHQDWLNGKEFKCRVNSAAFPAPIEKTISKTKGRPKAPQVYTIPPPKEQMAKDKVSLTCMITDFFPEDITVEWQWNGQPAENYKNTQPIMDTDGSYFVYSKLNVQKSNWEAGNTFTCSVLHEGLHNHHTEKSLSHSPGK
light: DIQMTQSPASLSASVGETVTITCRTSENLHNYLAWYQQKQGKSPQLLVYDAKTLADGVPSRFSGSGSGTQYSLKINSLQPEDFGSYYCQHFWSSPYTFGGGTKLEIKRADAAPTVSIFPPSSEQLTSGGASVVCFLNNFYPKDINVKWKIDGSERQNGVLNSWTDQDSKDSTYSMSSTLTLTKDEYERHNSYTCEATHKTSTSPIVKSFNRNEC
notes: also called positive control antibody AV380-mIgG1
B3: A4 (murine anti-2A2) (antibody, V domains shown)
VH: QVTLKESGPGILQPSQTLSLTCSFSGFSLTTSGMGVDWIRQSSGKGLEWLAHIYWDDDKRYNPSLKSRLTISKDTSSNQVFLKITSVDTADTATYYCARRAWDAMDYWGQGTSFTVSS
VL: DIVMTQAQKFMSTSVGDRVSVTCKARQNVGTNVAWYQQKPGQSPKALIYSASYRYSGVPDRFTGSGSGTDFTLTISNVQSEDLAEYFCQQYNSYPYTFGGGTKLEIK
notes: Purified murine hybridoma antibody
B4: A3 (murine anti-34G9) (antibody, V domains shown)
VH: QVQLKESGPGILQPSQTLSLTCSFSGFSLNTAGMTVGWIRQPSGKGLEWLAHIWWNDDKYYNPALKSRLTISKDTSNNQIFLEIASVVTADTATYYCTRIATMNYAMDYWGQGTSVTVSS
VL: DIVMTQAPASLAVSLGQRATISCRASQSVSTSSFSYMHWYQQKPGQPPKLLIKYASNLESGVPARFSGSGSGTDFTLNIHPVEEEDTATYYCQHSWEIPYTFGGGTKLEIK
notes: as for B3
B5: A5 (murine anti-50G3) (antibody, V domains shown)
VH: QVTLKESGPGILKPSQTLSLTCSFSGFSLSTSGMGVGWIRQPSGKGLEWLAHIWWNDDKYYNPSLKSHLTISKDTSRNQVFLMITSVDTADTATYYCARGAYDFFDYWGQGTTLTVSS
VL: B3 VL with K9N, R26S, G30D, E81D, E85D, S93T
notes: as for B3
B6: A1 (murine anti-53E5) (antibody, V domains shown)
VH: QVQLKESGPGILQPSQTLSLTCSFSGFSLSTSGMGVGWIRQPSGKGLEWLAHILWDDVKRYNPALKSRLTISKDSSNSQIFLKIASVDTADTATYYCVQMAWDWFAYWGQGTLVTVSA
VL: DIVMTQAQKFMSTSVEDRVSVTCKASQNVDTNVAWYQQKPGQSPKALIYSASYRSSGVPDRFTGSGSGTDFTLTISNVQSEDLAEYFCQQYHSYPTFGGGTKLEIK
notes: as for B3
B7: A2 (murine anti-53A8) (antibody, V domains shown)
VH: B6 VH with L54R, S75T, N77S, V98A
VL: B6 VL with E16G, N32D, S55Y, S76T, Q89H, H92N
notes: Purified murine hybridoma antibody; also called murine antibody 53A8
B8: A6 (murine anti-53D10) (antibody, V domains shown)
VH: QVTLKESGPGIVQPSQPFRLTCTFSGFSLSTSGIGITWIRQPSGKGLEWLATIWWDDDNRYNPSLKSRLTVSKDTSNNQAFLNIITVETADTAIYYCVQSAWDWFAYWGQGTLVTVSA
VL: B3 VL with A7S, R26S, P40S, Y55N, Q79E, Y94H, Y96V
notes: as for B3

biological target: T1, cynoGDF15-mFC; experiment: ELISA, cynoGDF15-mFC coated
Procedure: The experiment was performed as detailed in Example 2, except that the coating protein was cynoGDF15-mFC (GDF15: Genbank accession number EHH29815.1; mFC: Genbank accession number AAH31470.1), and the antibodies to be tested (the humanized antibodies), negative control antibody (hIgG1), and positive control antibodies Ponsegromab and AV380-hIgG1 were added to each well of the coated plate.

Binder | EC50 | OD450.Max
B1 | 0.0697 µg/mL | 1.07 OD450

biological target: T2, fusion protein comprising the …; experiment: ELISA, human GDF15-hIgG1 Fc coated, HRP anti-mouse IgG
Procedure: (§1) A fusion protein comprising the extracellular region of human GDF15 protein (Genbank accession number NM_004864.3) and human IgG1-FC (Genbank accession number CAC20454.1) was diluted to 1 ng/ml with coating solution, followed by adding to ELISA plate at 50 μl/well and incubating at 4° C. overnight. The solution in the wells was discarded and the plate was washed 3 times with washing solution, each time for 3-5 minutes, and dried by tapping. 200 μl of blocking solution was added to each well and incubated at 4° C. overnight. The plate was washed 3 times with washing solution, and the coated plate may be stored at −20° C. or 4° C. for future use.
(§2) The antibodies to be tested (purified antibodies from hybridoma, see Table 1), positive control antibody AV380-mIgG1 (its sequence is from Aveo Oncology; see SEQ ID NO. 1 and SEQ ID NO. 2 for its heavy chain and light chain variable regions, respectively; see SEQ ID NO. 3 and SEQ ID NO. 4 for its heavy chain and light chain constant regions, respectively) and blank control (PBS) were added to the wells. […] The wells were incubated at 37° C. for 1 hour, washed, and dried via tapping. Then the enzyme-labeled secondary antibody, horseradish peroxidase-labeled goat anti-mouse IgG (SIGMA, catalog number A9044-2 ml) was added to each well, at a dilution of 1:10000, 100 μl/well. The wells were incubated at 37° C. for 2 hours, washed, and dried via tapping. 100 μl of freshly prepared developing solution TMB was added to each well and incubated at 37° C. for 30 minutes.
(§3) 2 mol/L H₂SO₄ was added to terminate the reaction, and the OD values were read on enzyme-linked immunosorbent reader. The results were shown in Table 1-1, Table 1-2 and FIGS. 1-1 and 1-2.

Binder | EC50
B2 | 0.0296 µg/mL
B3 | 0.046 µg/mL
B4 | 0.109 µg/mL

biological target: T3, GDF15-mFC protein; experiment: blocking ELISA, GFRAL-hIgG1 Fc coated (competitor), GDF15-mFC 20 ng/well mixed with antibody
Procedure: as §1, with “of GFRAL” for “of human GDF15”, “number NM_207410.2)” for “number NM_004864.3)”, “[…]” for “1 ng/ml”, “dried via” for “dried by”, “well followed by incubating” for “well and incubated”
(§4) The antibodies to be tested, positive control antibody AV380-mIgG1 and blank control (PBS) were added to the wells. […] At the same time, GDF15-mFC protein (GDF15: Genbank accession number NM_004864.3; mFC: Genbank accession number AAH31470.1) was added at 20 ng/well and mixed with the antibodies to be tested. The wells were incubated at 37° C. for 1 hour, washed, and dried via tapping. Then the enzyme-labeled secondary antibody, horseradish peroxidase-labeled goat anti-mouse IgG (SIGMA, catalog number A9044-2 ml) was added to each well, at a dilution of 1:10000, 50-100 μl/well. The wells were incubated at 37° C. for 2 hours, washed, and dried via tapping. 100 μl of freshly prepared developing solution TMB was added to each well and incubated at 37° C. for 30 minutes. 2 mol/L H₂SO₄ was added to terminate the reaction, and the OD value was obtained on an enzyme-linked immunosorbent reader.

Binder | IC50
B2 | 0.198 µg/mL
B5 | 0.232 µg/mL
B6 | 0.186 µg/mL
B7 | 0.205 µg/mL
B8 | 0.213 µg/mL

biological target: T3, GDF15-mFC protein; experiment: as above; remark: another data set of the same source
Procedure: as §1, with “of GFRAL” for “of human GDF15”, “number NM_207410.2)” for “number NM_004864.3)”, “[…]” for “1 ng/ml”, “dried via” for “dried by”, “well followed by incubating” for “well and incubated”
as §4

Binder | IC50
B2 | 0.14 µg/mL
B3 | 0.0898 µg/mL
B4 | 0.0916 µg/mL

biological target: T4, GDF15-HIS (ACROBiosystems, CAT #: …); experiment: BLI (ForteBio Octet), antibody immobilised, GDF15 200-6.25 nM

Binder | Kd | koff | kon
B2 | 97 pM | 0.000117 s⁻¹ | 1.2e+06 M⁻¹ s⁻¹
B5 | 162 pM | 0.000328 s⁻¹ | 2.02e+06 M⁻¹ s⁻¹
B6 | 85 pM | 0.000194 s⁻¹ | 2.29e+06 M⁻¹ s⁻¹
B7 | 140 pM | 0.000318 s⁻¹ | 2.28e+06 M⁻¹ s⁻¹
B8 | 97.2 pM | 0.000217 s⁻¹ | 2.24e+06 M⁻¹ s⁻¹
B3 | 146 pM | 0.000214 s⁻¹ | 1.47e+06 M⁻¹ s⁻¹
B4 | 89.5 pM | 7.2e-05 s⁻¹ | 805000 M⁻¹ s⁻¹

biological target: T5, fusion protein comprising the …; experiment: ELISA, monkey GDF15-hIgG1 Fc coated, HRP anti-mouse IgG
Procedure: as §2
(§5) The experiment was performed as detailed in Example 2, except that the fusion protein in Example 2 was replaced with a fusion protein comprising the extracellular region of monkey GDF15 protein (Genbank accession number EHH29815.1) and human IgG1-FC (Genbank accession number CAC20454.1). The results were shown in Table 2-1, Table 2-2 and FIGS. 2-1 and 2-2.

Binder | EC50
B2 | 0.0258 µg/mL
B3 | 0.0827 µg/mL
B4 | 0.157 µg/mL

biological target: T2, fusion protein comprising the …; experiment: ELISA, human GDF15-hIgG1 Fc coated, HRP anti-mouse IgG; remark: another data set of the same source
Procedure: as §1, §2, §3

Binder | EC50
B2 | 0.0313 µg/mL
B5 | 0.0556 µg/mL
B6 | 0.0455 µg/mL
B7 | 0.0378 µg/mL
B8 | 0.0602 µg/mL

biological target: T5, fusion protein comprising the …; experiment: ELISA, monkey GDF15-hIgG1 Fc coated, HRP anti-mouse IgG; remark: another data set of the same source
Procedure: as §2, §5

Binder | EC50
B2 | 0.0146 µg/mL
B5 | 0.077 µg/mL
B6 | 0.0454 µg/mL
B7 | 0.0677 µg/mL
B8 | 0.0555 µg/mL
